Experiments:
GPCR142 = target: T1, GPCR142 (Homo sapiens, UniProt Q8TDU9, L329S); test: Inhibition of forskolin stimulated β-galactosidase expression in SK-N-MC/β-gal cells; format: cell-based
T1 construct: expressed in transfected cells
Method: (§1) In FIG. 1A, SK-N-MC/β-gal cells expressing human GPCR135 were stimulated with relaxin-3, relaxin-3 B-chain, porcine relaxin, or INSL3 at various concentrations to inhibit the forskolin stimulated β-galactosidase expression. Forskolin was added to cells at a final concentration of 5 μM to stimulate the β-galactosidase expression. FIG. 1B depicts results for SK-N-MC/β-gal cells expressing human GPCR142 stimulated as in FIG. 1A. In FIG. 1C, SK-N-MC/β-gal cells expressing human LGR7 were stimulated with relaxin-3, relaxin-3 B-chain, porcine relaxin, and INSL3 at various concentrations to induce the β-galactosidase expression. The intracellular β-galactosidase activities were measured by a colorimetric assay using CRGP as the substrate and reading the absorbance at a wavelength of 570 nm. For FIG. 1D, SK-N-MC/β-gal cells expressing human LGR8 were stimulated as in FIG. 1C.
(§2) Different chimeric polypeptides at various concentrations were added to SK-N-MC/β-gal cells expressing human GPCR135 (FIG. 4A) or GPCR142 (FIG. 4B) to inhibit forskolin stimulated β-galactosidase expression. […] In parallel, chimeric polypeptides at various concentrations were added to SK-N-MC/β-gal cells expressing human LGR7 (FIG. 4C) and LGR8 (FIG. 4D) to stimulate β-galactosidase expression. Relaxin-3 and INSL3 were used as positive controls for LGR7 and LGR8, respectively. Intracellular β-galactosidase activity was measured by a colorimetric assay using CRGP as the substrate and reading the absorbance at wavelength of 570 nm. Data represent mean±SEM (n=3).
(§3) In such SK-N-MC/β-gal cells, an increase in intracellular cAMP concentration leads to increased β-galactosidase gene expression, the activity of which is measured using Chlorophenol Red-β-D-Galactopyranoside (CPRG) as the substrate.
(§4) The inventive chimeric polypeptides were each independently tested for their ability to activate either GPCR135, GPCR142, LGR7, or LGR8, respectively, in separate pools of SK-N-MC/β-gal cells (see supra), each pool stably expressing one of the respective receptors, as indicated (FIG. 4).
(§5) Cells were seeded in 96-well tissue culture plate at a density of 30,000 cells/well in MEM plus 10% fetal serum, sodium pyruvate, penicillin, streptomycin, and G418 (400 mg/L). For cells expressing GPCR135 or GPCR142, forskolin was added to cells at a final concentration of 5 μM to stimulate intracellular cAMP accumulation. Different concentrations of each of the inventive polypeptides were then added to the cells to inhibit the forskolin induced cAMP accumulation. For cells expressing LGR7 or LGR8, intracellular cAMP was stimulated with each of the inventive chimeric polypeptides at various concentrations.
(§6) For all cells, after adding the chimeric polypeptides, cells were incubated for 6 additional hours in 37° C. incubator. The media was then aspirated and the β-galactosidase activities measured as previously described (Liu et al., 2001, Molecular Pharmacology, 59:420-426). The results were analyzed by Prism 3.0 software.

GPCR135 [1] = target: T2, GPCR135 (Homo sapiens, UniProt Q9NSD7); test: Radioligand competition binding, [125I]-relaxin-3, membranes of transfected COS-7 cells; conditions: for binding / affinity for GPCR135, in words: highest concentration 1 μM
T2 construct: expressed in transfected cells
T2 sequence (Q9NSD7 1-469): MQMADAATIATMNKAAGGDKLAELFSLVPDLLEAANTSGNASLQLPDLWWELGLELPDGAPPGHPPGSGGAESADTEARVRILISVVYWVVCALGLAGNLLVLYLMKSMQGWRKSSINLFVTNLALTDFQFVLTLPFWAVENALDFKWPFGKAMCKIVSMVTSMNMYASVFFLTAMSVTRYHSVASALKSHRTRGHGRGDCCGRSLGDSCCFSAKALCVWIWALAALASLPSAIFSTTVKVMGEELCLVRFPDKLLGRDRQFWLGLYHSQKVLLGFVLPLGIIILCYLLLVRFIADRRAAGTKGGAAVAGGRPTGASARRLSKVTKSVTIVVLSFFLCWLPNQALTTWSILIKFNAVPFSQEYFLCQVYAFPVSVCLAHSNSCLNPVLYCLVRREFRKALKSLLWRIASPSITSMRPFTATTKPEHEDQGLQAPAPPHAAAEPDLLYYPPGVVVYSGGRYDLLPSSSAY
Method: For GPCR135, GPCR142, and LGR7, [^125I]-relaxin-3 was used as the radioligand at a final concentration of 100 pM. Different unlabeled peptides were used in the binding assay as the competitors. […] Different unlabeled peptides including relaxin-3 chimeras at various concentrations were added to the binding assay as the competitors.
Radioligand binding assays for GPCR135 and GPCR142 were performed as previously described (Liu et al., 2003, Journal of Biological Chemistry, 278:50754-50764 and Liu et al., 2003, Journal of Biological Chemistry, 278:50765-50770). Membranes from COS-7 cells transiently transfected with either the GPCR135 expression vector or the GPCR142 expression vector, each described supra, were incubated with [^125I]-relaxin-3 at a final concentration 100 pM in 96-well plates. Peptides for competition binding studies were added to the binding mix (final volume: 200 μl) in binding buffer [50 mM Tris-HCl, pH 7.5, 5 mM EDTA, 1% bovine serum albumin, 0.1% protease inhibitor cocktails (Sigma)]. The binding mixtures were incubated at room temperature for 1 hour, filtered through GFC plates (Packard) pre-saturated with 0.3% Polyethylenimine (Sigma), and washed with cold washing buffer (50 mM Tris-HCl, pH 7.5, 5 mM EDTA). Microscint-40 was added to each well and the bound [^125I]-relaxin-3 was counted in a scintillation counter (TopCount/NTX, Packard).

LGR7 = target: T3, LGR7 (Homo sapiens, UniProt Q9HBX9); test: Radioligand competition binding, [125I]-relaxin-3, live transfected COS-7 cells
T3 construct: Human LGR7 cDNA containing the complete coding region was PCR amplified; expressed in transfected cells
T3 sequence (Q9HBX9 1-757): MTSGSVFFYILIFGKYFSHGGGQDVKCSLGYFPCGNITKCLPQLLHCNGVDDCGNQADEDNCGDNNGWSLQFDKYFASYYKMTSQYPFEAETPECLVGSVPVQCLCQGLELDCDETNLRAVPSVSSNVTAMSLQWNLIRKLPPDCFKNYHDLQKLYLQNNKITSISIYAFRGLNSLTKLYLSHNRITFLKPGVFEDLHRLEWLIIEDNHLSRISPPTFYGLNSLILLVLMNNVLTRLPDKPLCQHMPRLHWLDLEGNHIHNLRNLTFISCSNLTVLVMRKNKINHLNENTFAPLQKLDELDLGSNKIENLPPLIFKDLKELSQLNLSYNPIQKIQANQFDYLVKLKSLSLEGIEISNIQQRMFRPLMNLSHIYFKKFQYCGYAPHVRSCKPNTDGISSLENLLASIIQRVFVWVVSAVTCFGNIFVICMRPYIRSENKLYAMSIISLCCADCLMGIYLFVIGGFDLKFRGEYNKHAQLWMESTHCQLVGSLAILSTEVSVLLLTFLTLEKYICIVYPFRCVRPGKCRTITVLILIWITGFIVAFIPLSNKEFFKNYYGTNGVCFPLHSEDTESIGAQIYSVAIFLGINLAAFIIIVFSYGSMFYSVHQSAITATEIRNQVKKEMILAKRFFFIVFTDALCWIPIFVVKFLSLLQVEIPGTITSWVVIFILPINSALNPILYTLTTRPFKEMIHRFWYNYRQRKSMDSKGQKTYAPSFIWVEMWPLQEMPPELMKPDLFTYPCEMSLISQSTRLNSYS
Method: For GPCR135, GPCR142, and LGR7, [^125I]-relaxin-3 was used as the radioligand at a final concentration of 100 pM. Different unlabeled peptides were used in the binding assay as the competitors. […] Different unlabeled peptides including relaxin-3 chimeras at various concentrations were added to the binding assay as the competitors. Data represent mean±SEM (n=3).
Radioligand binding assays for LGR7 and LGR8 were performed using live COS-7 cells transiently transfected with LGR7 or LGR8 expression plasmids in 15-cm culture dishes using LipofectAmine (Invitrogen). Two days after transfection, the transfected cells were detached from the 15-cm culture dished using phosphate buffered saline (PBS) plus 10 mM EDTA, seeded into 96-well opaque poly-D-lysine coated culture plates and used for radioligand binding assays. For LGR7, [^125I]-relaxin-3 was used as the tracer. […] [^125I]-labeled tracer was added in binding reactions at a final concentration of 100 pM in binding buffer containing DMEM plus 50 mM HEPES and 1% bovine serum albumin. Unlabeled relaxin-3 and relaxin-3 chimeric polypeptides were added at various concentrations to the binding assays as the competitors, as indicated (FIG. 3). The binding mixtures were incubated at room temperature for 1 hour. The unbound radioligand was removed by aspiration of the binding buffer. The cells were washed with PBS. The bound radioligand was counted in a scintillation counter (TopCount/NTX). The results were analyzed using Prism 3.0 program (Graphpad, San Diego, Calif.). The IC50 values represent the ligand concentrations that inhibit 50% of the maximum specific binding.

LGR8 = target: T4, LGR8 (Homo sapiens, UniProt Q8WXD0); test: Radioligand competition binding, [125I]-INSL3, live transfected COS-7 cells; conditions: highest concentration 1 μM
T4 construct: Human LGR8 cDNA containing the complete coding region was PCR amplified; expressed in transfected cells
Source text: FIGS. 3A-3D illustrate the characterization of various relaxin-3 chimeric polypeptides using radioligand binding assays. Different relaxin-3 chimeric polypeptides were characterized for their receptor binding properties for human recombinant GPCR135 (FIG. 3A), GPCR142 (FIG. 3B), LGR7 (FIG. 3C), or LGR8 (FIG. 3D). For GPCR135, GPCR142, and LGR7, [^125I]-relaxin-3 was used as the radioligand at a final concentration of 100 pM. Different unlabeled peptides were used in the binding assay as the competitors. For LGR8, [^125I]-INSL3 was used as the radioligand at a final concentration of 100 pM. Different unlabeled peptides including relaxin-3 chimeras at various concentrations were added to the binding assay as the competitors. Data represent mean±SEM (n=3).
Radioligand binding assays for LGR7 and LGR8 were performed using live COS-7 cells transiently transfected with LGR7 or LGR8 expression plasmids in 15-cm culture dishes using LipofectAmine (Invitrogen). Two days after transfection, the transfected cells were detached from the 15-cm culture dished using phosphate buffered saline (PBS) plus 10 mM EDTA, seeded into 96-well opaque poly-D-lysine coated culture plates and used for radioligand binding assays. For LGR7, [^125I]-relaxin-3 was used as the tracer. For LGR8, [^125I]-INSL3 (specific activity: 2200 Ci/mmol) was used as the tracer. [^125I]-labeled tracer was added in binding reactions at a final concentration of 100 pM in binding buffer containing DMEM plus 50 mM HEPES and 1% bovine serum albumin. Unlabeled relaxin-3 and relaxin-3 chimeric polypeptides were added at various concentrations to the binding assays as the competitors, as indicated (FIG. 3). The binding mixtures were incubated at room temperature for 1 hour. The unbound radioligand was removed by aspiration of the binding buffer. The cells were washed with PBS. The bound radioligand was counted in a scintillation counter (TopCount/NTX). The results were analyzed using Prism 3.0 program (Graphpad, San Diego, Calif.). The IC50 values represent the ligand concentrations that inhibit 50% of the maximum specific binding.

GPCR135 [2] = target: T2, GPCR135; test: Inhibition of forskolin stimulated β-galactosidase expression in SK-N-MC/β-gal cells; format: cell-based
Method: as §1, §2, §3, §4, §5, §6

[3] = highest concentration tested 1 μM
[4] = inhibition of 5 μM forskolin stimulated β-galactosidase expression, mean ± SEM, n = 3

T4 sequence (Q8WXD0 whole entry): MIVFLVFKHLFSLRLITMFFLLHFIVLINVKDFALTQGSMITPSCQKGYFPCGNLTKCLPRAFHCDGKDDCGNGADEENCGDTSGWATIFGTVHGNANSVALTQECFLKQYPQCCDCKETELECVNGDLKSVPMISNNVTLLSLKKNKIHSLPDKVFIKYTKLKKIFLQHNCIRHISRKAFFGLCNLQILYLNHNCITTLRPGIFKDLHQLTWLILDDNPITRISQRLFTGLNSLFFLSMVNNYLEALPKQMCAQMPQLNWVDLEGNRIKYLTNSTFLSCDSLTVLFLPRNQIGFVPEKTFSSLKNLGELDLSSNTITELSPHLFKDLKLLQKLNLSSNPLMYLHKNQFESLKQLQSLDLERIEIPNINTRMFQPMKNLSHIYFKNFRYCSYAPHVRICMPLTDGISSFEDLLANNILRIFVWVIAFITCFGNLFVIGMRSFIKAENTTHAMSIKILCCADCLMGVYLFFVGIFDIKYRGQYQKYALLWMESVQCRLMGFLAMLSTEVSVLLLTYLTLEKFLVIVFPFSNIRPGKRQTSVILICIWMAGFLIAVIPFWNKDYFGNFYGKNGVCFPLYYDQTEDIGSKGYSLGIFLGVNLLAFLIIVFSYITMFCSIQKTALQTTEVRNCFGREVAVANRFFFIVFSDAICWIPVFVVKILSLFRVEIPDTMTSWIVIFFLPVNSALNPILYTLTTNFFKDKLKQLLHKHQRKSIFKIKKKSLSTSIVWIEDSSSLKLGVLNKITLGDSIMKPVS
T1 sequence (Q8TDU9 whole entry L329S): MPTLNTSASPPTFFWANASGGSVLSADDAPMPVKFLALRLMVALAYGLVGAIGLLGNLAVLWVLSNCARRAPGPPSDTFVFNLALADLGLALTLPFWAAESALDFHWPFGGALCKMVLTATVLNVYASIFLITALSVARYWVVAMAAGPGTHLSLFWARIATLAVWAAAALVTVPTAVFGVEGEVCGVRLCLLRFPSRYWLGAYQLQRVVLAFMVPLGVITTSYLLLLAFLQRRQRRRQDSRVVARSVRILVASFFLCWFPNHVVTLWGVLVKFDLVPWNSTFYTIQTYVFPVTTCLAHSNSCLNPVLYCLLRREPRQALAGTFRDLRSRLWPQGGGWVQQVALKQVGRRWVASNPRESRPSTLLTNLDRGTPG

| Substance | agonist activity at GPCR142, in words (GPCR142; [3]) | binding / affinity for GPCR135, in words (GPCR135 [1]) | binding to LGR7, in words (LGR7; [3]) | binding affinity for LGR8, in words (LGR8) | agonist activity at GPCR135, in words (GPCR135 [2]; [3]) | EC50 to activate GPCR142 (GPCR142; [4]) | EC50 to activate GPCR135 (GPCR135 [2]; [4]) | affinity for GPCR135 (GPCR135 [1]; discussion) [nM] | affinity for LGR7 (LGR7; discussion) [nM] |
| --- | --- | --- | --- | --- | --- | --- | --- | --- | --- |
| R3/I4: chimeric polypeptide: human relaxin-3 B-chain and INSL4 A-chain; mature polypeptide SEQ ID NO:22 (RAAPYGVRLCGREFIRAVIFTCGGSRWFDPFCCEVICDDGTSVKLC; Human Relaxin-3/Insulin-like 4 chimeric mature polypeptide) | stimulated GPCR135 or GPCR142 at the highest concentration (1 μM) tested only | marginal binding at the highest concentration (1 μM) | inactive | no binding affinity | stimulated GPCR135 or GPCR142 at the highest concentration (1 μM) tested only | – | – | – | – |
| R3/I5: chimeric polypeptide: human relaxin-3 B-chain and INSL5 A-chain; mature polypeptide SEQ ID NO:23 (RAAPYGVRLCGREFIRAVIFTCGGSRWQDLQTLCCTDGCSMTDLSALC; Human Relaxin-3/Insulin-like 5 chimeric mature polypeptide) | – | subnanomolar | – | no binding affinity | – | low nanomolar range | low nanomolar range | – | – |
| R3/I6: chimeric polypeptide: human relaxin-3 B-chain and INSL6 A-chain; mature polypeptide SEQ ID NO:24 (RAAPYGVRLCGREFIRAVIFTCGGSRWGYSEKCCLTGCTKEELSIAC; Human Relaxin-3/Insulin-like 6 chimeric mature polypeptide) | – | – | – | no binding affinity | – | – | – | 10 to 15 | 10 to 15 |

From US7893197B2, “Relaxin-3 chimeric polypeptides and their preparation and use” (Janssen Pharmaceutica N.V., priority 2005, dated 2011)
